Consider 1 molecule from PMC10844748.

A value given as a limit tells only on which side of the number the result lay.

For this assay, the target named is S. cerevisiae translation elongation factor 1A (eEF1A), TEF1-encoded, purified from a ΔEFM4 strain (S. cerevisiae) (UniProt P02994).
UniProt P02994, sequence (P02994 whole entry, stated change not applied): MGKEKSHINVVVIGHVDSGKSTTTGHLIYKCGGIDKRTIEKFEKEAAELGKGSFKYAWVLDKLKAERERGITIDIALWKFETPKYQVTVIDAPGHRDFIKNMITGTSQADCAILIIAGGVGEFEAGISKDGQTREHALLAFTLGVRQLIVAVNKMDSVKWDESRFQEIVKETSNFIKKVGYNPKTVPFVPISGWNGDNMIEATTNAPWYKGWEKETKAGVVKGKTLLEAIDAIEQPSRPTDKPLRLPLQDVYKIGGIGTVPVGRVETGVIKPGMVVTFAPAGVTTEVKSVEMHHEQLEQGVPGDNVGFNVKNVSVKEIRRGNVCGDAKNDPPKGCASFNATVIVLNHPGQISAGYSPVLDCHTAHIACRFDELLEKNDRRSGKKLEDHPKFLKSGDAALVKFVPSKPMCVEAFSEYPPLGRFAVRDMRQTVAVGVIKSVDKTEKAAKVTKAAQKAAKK

B1: Efm4 F210A/F212A double mutant (enzyme)
chain: FRRNPQDTGDCWFSDSDAEQKMIDFLVDNIGAYRISENASVVDLGTGNGHMLFELHQTEFQGKLVGIDYSEESVKLASNIAEATGVDNFISFQQADIFSGDWKPGKYDIVLDKGTLDAISLSGMKINGKLDVVDVYAGVVERILKKDGIFLITSCNFTQDELVKIIETDNLKMWKTIKYPVAQAGGVQGATICSVAFVKQN
Take B1: the in vitro methylation of eEF1A K316 (Efm4 3 μM, eEF1A 2 μM, AdoMet, 30 min, 30 °C; LC-MS/MS) was less than 20%.
